For orientation: Tm means the temperature at the midpoint of the melting transition.

B1: Alanine--glyoxylate aminotransferase, P21549 (parent)
chain: MASHKLLVTPPKALLKPLSIPNQLLLGPGPSNLPPRIMAAGGLQMIGSMSKDMYQIMDEIKEGIQYVFQTRNPLTLVISGSGHCALEAALVNVLEPGDSFLVGANGIWGQRAVDIGERIGARVHPMTKDPGGHYTLQEVEEGLAQHKPVLLFLTHGESSTGVLQPLDGFGELCHRYKCLLLVDSVASLGGTPLYMDRQGIDILYSGSQKALNAPPGTSLISFSDKAKKKMYSRKTKPFSFYLDIKWLANFWGCDDQPRMYHHTIPVISLYSLRESLALIAEQGLENSWRQHREAAAYLHGRLQALGLQLFVKDPALRLPTVTTVAVPAGYDWRDIVSYVIDHFDIEIMGGLGPSTGKVLRIGLLGCNATRENVDRVTEALRAALQHCPKKKL

The series covers variants of B1. The following applies: Homo sapiens; pH 7.4; Thermal; DSC; Potassium phosphate 100 mM; structure 1H0C; whole UniProt chain shown.
G41V: the Tm was found to be 58.3 °C and the “change of melting temperature, mutant - wild type (higher = more stable)” value is -4.1 °C.
